Measured values as given in the supplement of paper PMC9170038.

System: MS2 coat protein
Assay: apparent KD of MS2 coat protein; higher = weaker reporter binding
Settings: Eterna round: R107
How it was run: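 Binding of SNAP-549-labelled MS2 coat protein was measured on designed RNA switches transcribed on-chip from Illumina sequencing clusters. The protein rose in twofold steps from 0.7 or 1.5 nM to 3 µM, with 0.8–1.5 h per step early on and 10–20 min per step later, in 100 mM Tris-HCl pH 7.5, 80 mM KCl, 4 mM MgCl2, without or with constant ligand. Each design's apparent KD is the median of fits to its normalised cluster binding curves.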

[1] = input ligand: theophylline 20 uM
[2] = input ligand: theophylline 2 mM
[3] = input ligand: tryptophan 2.4 mM

Sequence	apparent KD of MS2 coat protein (input ligand: arginine 13.2 mM)	apparent KD of MS2 coat protein (input ligand: none)	apparent KD of MS2 coat protein [1]	apparent KD of MS2 coat protein [2]	apparent KD of MS2 coat protein [3]
GGCACCAGGAGAAGGAGCGUGAAGACAUGAGGAUCACCCAUGUAGAGGCCCGGACAGGGUUCGCAGGUAGGUCGCUCCUGGUGCC [#1 Same State - Arginine B Attempt #10 (HarryS)]	20.4 nM	8.29 nM	245 nM	122 nM	47.2 nM
GGCCAUGGAAACAUGGCGGCGGCAUAAGCGCGAGGACCGGUACGGCCGCCACUCGGGCGACAUGAGGAUCACCCAUGUUCCUCAU [ETA NP+V+V2 #23 Same Structure]	105 nM	–	413 nM	529 nM	–
GGCCCUGCGAGCGCUCGCAGGGCCGCGGAUACCAGCGAGGUCCAUCGCCCUUGGCAGCCGAACAUGAGGAUCACCCAUGUCGGUU [#1 Same State - Theophylline A Attempt #12 (HarryS)]	5.98 nM	11.2 nM	12.3 nM	14.4 nM	9.96 nM
GGCCGUGCGAGCGCUCGCGUGGCCGCGGAUACCAGCGAGGUCCAUCGCCCUUGGCAGCCGAACAUGAGGAUCACCCAUGUCGGUA [#1 Same State - Theophylline A Attempt #14 (HarryS)]	8.93 nM	11 nM	15.2 nM	17.3 nM	9.77 nM
GGCCUGUGGAGCGAUACCAGCUUGAGUGUACUGGCCAGGUACAUGAGGAUCACCCAUGUAAGCCCUUGGCAGCGCUCCAGAGGCC [#1 Exclusion - Theophylline B Attempt #18 (HarryS)]	9.41 nM	12.1 nM	16.4 nM	56.7 nM	13.2 nM
GGCCUGUGGUGCGAUACCAGCUUGAGUGUACUGGCCAGGUACAUGAGGAUCACCCAUGUAAGCCCUUGGCAGCGCGUCAGAGGCC [#1 Exclusion - Theophylline B Attempt #19 (HarryS)]	13.5 nM	8.82 nM	16.9 nM	30.3 nM	12.1 nM
GGCCUUGCGGGCGCCCGCAAGGCCGCGGAUACCAGCGAGGUCCAUCGCCCUUGGCAGCCGAACAUGAGGAUCACCCAUGUCGGUU [Same State - Theophylline A Attempt #6 (HarryS)]	9.84 nM	–	13.7 nM	–	11.3 nM
GGCGCGCGCCAACAUGAGGAUCACCCAUGUCGAGGACCGGUACGGCCGCCACUCGAACGAGUGAAGCGCGCGCGCGGAGCGCCGC [Taa]	24 nM	37.1 nM	47.8 nM	47 nM	60.1 nM
GGCGCGGUGAUGGAAGCCGAACGCUAGGUACGAGGACCGGUACGGCCGCCACUCGUAGUCCUGGGACAUGAGGAUCACCCAUGUA [Same State Trp A GF20]	39.3 nM	119 nM	109 nM	96 nM	51.2 nM
GGCGGACUUAUAGAUACCAGCACAUGAGGAUCACCCAUGUAUGGUCGCACCUCAGUCCUGUGCCCUUGGCAGCUAUAAUAGAUUU [Esxeanbi]	20.8 nM	–	49.8 nM	–	16.4 nM
GGCUGUCAUAGGAGGUCAAAUAUACUCGAAGGAGCGUCAUAGUAGGCAGGUAGGUCGCGAGACAUGAGGAUCACCCAUGUAGAGA [xkxmullin]	37.7 nM	69.1 nM	122 nM	52.9 nM	30.6 nM
GGCUGUUGCGAUUUGAAGCGGCAGCGUGAUACCAGAUGUAAGAGCGUCCCUUGGCAGCACGUUUACAUGAGGAUCACCCAUGUCA [Xerema]	56.6 nM	–	123 nM	–	192 nM
GGCUGUUGCUCUUUGAAGCGGCAGCGUGAUACCAGAUGUAAGAGCGUCCCUUGGCAGCACGUUUACAUGAGGAUCACCCAUGUCA [Raisquin]	70.6 nM	–	163 nM	–	151 nM
GGCUUCAACUCGGCCGCCACUGGUGAUCCUCAUGUACAUGAGGAUCACCCAUGUACAUGAGACUACAGGACCGGGAGAUCAGCAA [Tryptophan B]	10.5 nM	–	28.8 nM	22.5 nM	–
GGGAAUGAACGUGAUACCAGAGAUCCGGUCUCCGUCACUCUACAUGAGGAUCACCCAUGUCUCCCUUGGCAGCACCGUCAUCGGG [Exclusion Theophylline B GF 29]	32.4 nM	–	43.3 nM	–	29 nM
GGGACAUCGGGAAGGAGCGCAUCCAAACCACACAUGAGGAUCACCCAUGUAUAAAUAUGCAUGCAGGUAGGUCGCCCGGUGCCUC [Axeenza]	44.2 nM	114 nM	131 nM	123 nM	101 nM
GGGAGGGAGGCGGCCGCCACUGAUUUUCAUAUAUAUAUAACAUGAGGAUCACCCAUGUGGAUAUGCAGGACCGGGCCUUUUUUUU [aaaJ]	123 nM	22.2 nM	18.8 nM	13.2 nM	20.2 nM
GGGCAAGAGGGAAGGAGCGUCGGCUGAGUAACAUGAGGAUCACCCAUGUAGCACAUGGUGUGGCAGGUAGGUCGCCCUCUGCCCU [SS-ArgB8]	56.1 nM	103 nM	201 nM	178 nM	118 nM

Sequence	apparent KD of MS2 coat protein (input ligand: arginine 13.2 mM)	apparent KD of MS2 coat protein (input ligand: none)	apparent KD of MS2 coat protein [1]	apparent KD of MS2 coat protein [2]	apparent KD of MS2 coat protein [3]
GGGCCCGGGCCCGAUACCAGCAGAGAAAACAUAUAUCCUAACAUGAGGAUCACCCAUGUAUGCCCUUGGCAGCGGGCCCGGGCCC [#15 Exclusion-TheophyllineB]	32.2 nM	34.5 nM	33.9 nM	33.2 nM	28.2 nM
GGGCCCGGGCGCGAGCCCGGGCCCAUUGAUACCAGUGAAUAUAUACGCCCUUGGCAGCGAAUCCUAACAUGAGGAUCACCCAUGU [5.B]	34.8 nM	50.2 nM	62.3 nM	49.4 nM	38.2 nM
GGGCCCGGGCGCGAGCCCGGGCCCAUUGAUACCAGUGAAUGUGUACGCCCUUGGCAGCGAAUCCUAACAUGAGGAUCACCCAUGU [5.D]	31.4 nM	–	76.7 nM	–	35.2 nM
GGGCCUGUAGGCAGGCCCACAGCGGGUGAUACCAGCAAUAAAACUUGCCCUUGGCAGCACACAGCUACAUGAGGAUCACCCAUGU [Ismaorxe]	44.9 nM	–	99.3 nM	–	69.7 nM
GGGCGCUAUCCCGCGAGGGAUAGCGUUCAACGAGGACCGGUACGGCCGCCACUCGAACGAGUGGGUACAUGAGGAUCACCCAUGU [Haa]	19.9 nM	28.5 nM	46.4 nM	37.1 nM	35.4 nM
GGGCGUGUGGCGCGGCGUGCUCCGCUCCGUCGAGGACCGGUACGGCCGCCACUCGACAUGAGGAUCACCCAUGUGCGAGCUCGCG [#1 Exclusion - Tryptophan A Attempt #11 (HarryS)]	17.6 nM	33.8 nM	35.6 nM	44.6 nM	154 nM
GGGUACAUCGCGGCCGCCACUUAUGUAAAUACAUGAGGAUCACCCAUGUCGAUGGAGACAUCGGUAAGGACCGGGUGAUGUACCG	168 nM	155 nM	174 nM	183 nM	–
GGGUCGGGCGCGGCCGCCACUGCGGUGGUGUGACAUGAGGAUCACCCAUGUUGUCAUGCGGCCCUUAGGACCGGGCGCCCGGCCC [#1 Exclusion - Tryptophan B Attempt #11 (HarryS)]	19.3 nM	42.5 nM	67.4 nM	70.1 nM	38.4 nM
GGGUGCGGCACGGCCGCCACUGCGGUGGUGUGACAUGAGGAUCACCCAUGUUGUCAUGCGGCCCUUAGGACCGGGUGGCGUGCCU [#1 Exclusion - Tryptophan B Attempt #15 (HarryS)]	5.27 nM	24.1 nM	31.2 nM	89.5 nM	38 nM
GGGUGCGGGCGAAGGAGCGUGAAGACAUGAGGAUCACCCAUGUAGAGGCCCGAACAGGGUUCGCAGGUAGGUCGCGCGCGUGCCC [#1 Same State - Arginine B Attempt #5 (HarryS)]	11.8 nM	15.6 nM	20.4 nM	18.6 nM	16.3 nM
GGGUGCGGGUGAAGGAGCGUGAAGACAUGAGGAUCACCCAUGUAGAGGCCCGAACAGGGUUCGCAGGUAGGUCGCACCCGUGCCC [#1 Same State - Arginine B Attempt #3 (HarryS)]	12 nM	17.3 nM	22.8 nM	19.5 nM	16.4 nM
GGGUGGUAGGCGGCCGCCACUGAUUUUCAUUCAUAGAUGACAUGAGGAUCACCCAUGUUUAUGUGCAGGACCGGGCCUGCUGUGG [aaaU]	43.4 nM	144 nM	102 nM	115 nM	116 nM
GGGUUACUCUAUGAUACCAGUUCCAUGCCGAAACCUGUGUACAUGAGGAUCACCCAUGUGAACCCUUGGCAGCAUUAAUCAACUG [theeternabot_exclusion_MS2_Theo_B_35]	51.5 nM	–	163 nM	–	69.5 nM
GGUAUGUAUUCGGAAACGAAUGCAUACCAACGAGGACCGGUACGGCCGCCACUCGCGGCUGAUCAACAUGAGGAUCACCCAUGUA [Ex Tryptophan A 4]	19.4 nM	24.8 nM	33 nM	31.5 nM	28.4 nM
GGUAUGUAUUCGGAAACGAAUGCAUACCAACGAGGACCGGUACGGCCGCCACUCGGCCGUGAUCAACAUGAGGAUCACCCAUGUA [Ex Tryptophan A 6]	16.3 nM	–	21.5 nM	20.2 nM	–
GGUCUCUGGAGCGAUACCAGCUUGAUCGUACUGGCCUGGUACAUGAGGAUCACCCAUGUAAGCCCUUGGCAGCGCUCCAGAGACC [#1 Exclusion - Theophylline B Attempt #8 (HarryS)]	11.8 nM	–	16.3 nM	–	11.2 nM
GGUGGGACUUGUGAUACCAGCCUAAUUCUAAACGAAUUGCACAUGAGGAUCACCCAUGUCGGCCCUUGGCAGCAUGAGUAUUUAU [Anartiison]	73.3 nM	–	104 nM	–	117 nM
